Data: PMC7954794 (2021)

B1: S. cerevisiae Abp1 (full length; SH3 domain 535-592 mutated) / Hua2 (parent complex)
chain 1: MALEPIDYTTHSREIDAEYLKIVRGSDPDTTWLIISPNAKKEYEPESTGSSFHDFLQLFDETKVQYGLARVSPPGSDVEKIIIIGWCPDSAPLKTRASFAANFAAVANNLFKGYHVQVTARDEDDLDENELLMKISNAAGARYSIQTSSKQQGKASTPPVKKSFTPSKSPAPVSKKEPVKTPSPAPAAKISSRVNDNNDDDDWNEPELKERDFDQAPLKPNQSSYKPIGKIDLQKVIAEEKAKEDPRLVQKPTAAGSKIDPSSDIANLKNESKLKRDSEFNSFLGTTKPPSMTESSLKNDDDKVIKGFRNEKSPAQLWAERKAKQNSGNAETKAEAPKPEVPEDEPEGEPDVKDLKSKFEGLAASEKEEEEMENKFAPPPKKSEPTIISPKPFSKPQEPVKAEEAEQPKTDYKKIGNPLPGMHIEADNEEEPEENDDDWDDDEDEAAQPPLPSRNVASGAPVQKEEPEQEEIAPSLPSRNSIPAPKQEEAPEQAPEEEIEEEAEEAAPQLPSRSSAAPPPPPRRATPEKKPKENPWATAEYDYDAAEDNELTFVENDKIINIEFVDDDWWLGELEKDGSKGLFPSNYVSLGN
chain 2: MQQTKFGKMYLDHDSVVEYSEDEIVEADRITLGYKKRLSMIENQMRHLLEDFSLDVQQIEPILADLQKYYDAFLQLLQKRNKSLQCKRSTHQPVPSPMNSQTSTNAKVNLSGKLMKFQLNSVQKFDEENILRILQNKIEFEHYFQIDKGKKQKVLLLAVYQCLNGPTRLHKVLNIEGIIHNNSIRTILGKQVSSSKWTVFLYDVKLVLLAHRQDVPNLETSKMIVRYGDLFPCALYFKDHTAY

Variants of: B1
Test: DHFR protein-fragment complementation in yeast (Abp1-DHFR F[1,2] x partner-DHFR F[3]), deep mutational scanning, second methotrexate selection vs reference; S. cerevisiae, DHFR-PCA selection in liquid with methotrexate at 30 C, two 72 h selections (the score uses the second); reference = the pre-selection culture

Row | Variant | screen value
1 | chain 1 MALEPIDYTTHSREIDAEYLKIVRGSDPDTTWLIISPNAKKEYEPESTGSSFHDFLQLFDETKVQYGLARVSPPGSDVEKIIIIGWCPDSAPLKTRASFAANFAAVANNLFKGYHVQVTARDEDDLDENELLMKISNAAGARYSIQTSSKQQGKASTPPVKKSFTPSKSPAPVSKKEPVKTPSPAPAAKISSRVNDNNDDDDWNEPELKERDFDQAPLKPNQSSYKPIGKIDLQKVIAEEKAKEDPRLVQKPTAAGSKIDPSSDIANLKNESKLKRDSEFNSFLGTTKPPSMTESSLKNDDDKVIKGFRNEKSPAQLWAERKAKQNSGNAETKAEAPKPEVPEDEPEGEPDVKDLKSKFEGLAASEKEEEEMENKFAPPPKKSEPTIISPKPFSKPQEPVKAEEAEQPKTDYKKIGNPLPGMHIEADNEEEPEENDDDWDDDEDEAAQPPLPSRNVASGAPVQKEEPEQEEIAPSLPSRNSIPAPKQEEAPEQAPEEEIEEEAEEAAPQLPSRSSAAPPPPPRRATPEKKPKENPWATAEYDYDAAEDNELTFVENDKIINIEFVDDDWWLGELEKDGSKGLFPSPYVSLGN [chain 1 N586P] | -0.0573 DMS score: mean over two replicates of log2(f_test/f_ref + 0.5)/ln 2, minus the synonymous-codon median (not a log2 …
2 | chain 1 MALEPIDYTTHSREIDAEYLKIVRGSDPDTTWLIISPNAKKEYEPESTGSSFHDFLQLFDETKVQYGLARVSPPGSDVEKIIIIGWCPDSAPLKTRASFAANFAAVANNLFKGYHVQVTARDEDDLDENELLMKISNAAGARYSIQTSSKQQGKASTPPVKKSFTPSKSPAPVSKKEPVKTPSPAPAAKISSRVNDNNDDDDWNEPELKERDFDQAPLKPNQSSYKPIGKIDLQKVIAEEKAKEDPRLVQKPTAAGSKIDPSSDIANLKNESKLKRDSEFNSFLGTTKPPSMTESSLKNDDDKVIKGFRNEKSPAQLWAERKAKQNSGNAETKAEAPKPEVPEDEPEGEPDVKDLKSKFEGLAASEKEEEEMENKFAPPPKKSEPTIISPKPFSKPQEPVKAEEAEQPKTDYKKIGNPLPGMHIEADNEEEPEENDDDWDDDEDEAAQPPLPSRNVASGAPVQKEEPEQEEIAPSLPSRNSIPAPKQEEAPEQAPEEEIEEEAEEAAPQLPSRSSAAPPPPPRRATPEKKPKENPWATAEYDYDAAEDNELTFVENDAIINIEFVDDDWWLGELEKDGSKGLFPSNYVSLGN [chain 1 K558A] | -0.817 DMS score: mean over two replicates of log2(f_test/f_ref + 0.5)/ln 2, minus the synonymous-codon median (not a log2 …
3 | chain 1 MALEPIDYTTHSREIDAEYLKIVRGSDPDTTWLIISPNAKKEYEPESTGSSFHDFLQLFDETKVQYGLARVSPPGSDVEKIIIIGWCPDSAPLKTRASFAANFAAVANNLFKGYHVQVTARDEDDLDENELLMKISNAAGARYSIQTSSKQQGKASTPPVKKSFTPSKSPAPVSKKEPVKTPSPAPAAKISSRVNDNNDDDDWNEPELKERDFDQAPLKPNQSSYKPIGKIDLQKVIAEEKAKEDPRLVQKPTAAGSKIDPSSDIANLKNESKLKRDSEFNSFLGTTKPPSMTESSLKNDDDKVIKGFRNEKSPAQLWAERKAKQNSGNAETKAEAPKPEVPEDEPEGEPDVKDLKSKFEGLAASEKEEEEMENKFAPPPKKSEPTIISPKPFSKPQEPVKAEEAEQPKTDYKKIGNPLPGMHIEADNEEEPEENDDDWDDDEDEAAQPPLPSRNVASGAPVQKEEPEQEEIAPSLPSRNSIPAPKQEEAPEQAPEEEIEEEAEEAAPQLPSRSSAAPPPPPRRATPEKKPKENPWATAEYDYDAAEDNELTFVENDKIINIEFVDDDWWLGELEKCGSKGLFPSNYVSLGN [chain 1 D577C] | -0.926 DMS score: mean over two replicates of log2(f_test/f_ref + 0.5)/ln 2, minus the synonymous-codon median (not a log2 …

Continued, values first:

Row | screen value | Variant
4 | 2.45 DMS score: mean over two replicates of log2(f_test/f_ref + 0.5)/ln 2, minus the synonymous-codon median (not a log2 … | chain 1 MALEPIDYTTHSREIDAEYLKIVRGSDPDTTWLIISPNAKKEYEPESTGSSFHDFLQLFDETKVQYGLARVSPPGSDVEKIIIIGWCPDSAPLKTRASFAANFAAVANNLFKGYHVQVTARDEDDLDENELLMKISNAAGARYSIQTSSKQQGKASTPPVKKSFTPSKSPAPVSKKEPVKTPSPAPAAKISSRVNDNNDDDDWNEPELKERDFDQAPLKPNQSSYKPIGKIDLQKVIAEEKAKEDPRLVQKPTAAGSKIDPSSDIANLKNESKLKRDSEFNSFLGTTKPPSMTESSLKNDDDKVIKGFRNEKSPAQLWAERKAKQNSGNAETKAEAPKPEVPEDEPEGEPDVKDLKSKFEGLAASEKEEEEMENKFAPPPKKSEPTIISPKPFSKPQEPVKAEEAEQPKTDYKKIGNPLPGMHIEADNEEEPEENDDDWDDDEDEAAQPPLPSRNVASGAPVQKEEPEQEEIAPSLPSRNSIPAPKQEEAPEQAPEEEIEEEAEEAAPQLPSRSSAAPPPPPRRATPEKKPKENPWATAEYDYDAAEDNELTFVENDKIINIEFVDDDWWLGELEKDGSKGLFPSMYVSLGN [chain 1 N586M]
5 | 0.422 DMS score: mean over two replicates of log2(f_test/f_ref + 0.5)/ln 2, minus the synonymous-codon median (not a log2 … | chain 1 MALEPIDYTTHSREIDAEYLKIVRGSDPDTTWLIISPNAKKEYEPESTGSSFHDFLQLFDETKVQYGLARVSPPGSDVEKIIIIGWCPDSAPLKTRASFAANFAAVANNLFKGYHVQVTARDEDDLDENELLMKISNAAGARYSIQTSSKQQGKASTPPVKKSFTPSKSPAPVSKKEPVKTPSPAPAAKISSRVNDNNDDDDWNEPELKERDFDQAPLKPNQSSYKPIGKIDLQKVIAEEKAKEDPRLVQKPTAAGSKIDPSSDIANLKNESKLKRDSEFNSFLGTTKPPSMTESSLKNDDDKVIKGFRNEKSPAQLWAERKAKQNSGNAETKAEAPKPEVPEDEPEGEPDVKDLKSKFEGLAASEKEEEEMENKFAPPPKKSEPTIISPKPFSKPQEPVKAEEAEQPKTDYKKIGNPLPGMHIEADNEEEPEENDDDWDDDEDEAAQPPLPSRNVASGAPVQKEEPEQEEIAPSLPSRNSIPAPKQEEAPEQAPEEEIEEEAEEAAPQLPSRSSAAPPPPPRRATPEKKPKENPWCTAEYDYDAAEDNELTFVENDKIINIEFVDDDWWLGELEKDGSKGLFPSNYVSLGN [chain 1 A537C]
